Experimental data published in article PMC6065417, “Neutralization of Junín virus by single domain antibodies targeted against the nucleoprotein” (Scientific Reports, 2018).

Assays:
Conditions in all cases: one partner purified
[1] = target: T1, Junín virus nucleoprotein (N) of strain XJCl3, expressed from a plasmid (Junín virus (Junin mammarenavirus), …, UniProt F4ZL09, strain); assay: immunostaining of cells or tissue
T1 construct: also called N from XJCl3

[2] = target: T2, Junín virus nucleoprotein (N) of strain Candid#1, expressed from a plasmid (Junin mammarenavirus, Candid#1, UniProt F4ZL09, strain); assay: immunostaining of cells or tissue
T2 construct: also called N from Candid#; Candid#1N; source: Vero cells, transfected (Fugene), in fixed and permeabilized cells

[3] = target: T3, Junín virus nucleoprotein (N) in Candid#1-infected cells (Junin mammarenavirus, Candid#1, UniProt F4ZL09, strain); assay: co-IP
T3 construct: also called viral N; Candid#1N

Measured: binding result

B1: VHH 2.3 (VHH)
VHH: QVQLVESGGGLVQPGGSLRLSCAASGSIDSINAMAWYRQAPGKERELVAGISKNGIPWYLDSLKGRFNVSRDNAKNTLYLQIHNLKPEDAAMYYCASSSRTIATTTNEFDFWGQGTQVTVSS
notes: source: E. coli, periplasmic extract, purified (Ni-NTA); not shown: His6, C-terminal, kept
binds: [1] | [2] | [3]
